Target: SecA* (SecA795C labelled with 5-iodoacetamidofluorescein) (UniProt P10408)
Experiment: other fluorescence titration; SecYEG variant in detergent titrated into 10 nM fluorescein-labelled SecA*; quenching read at 522 nm; 20 mM Tris pH 8, 130 mM NaCl, 10% glycerol, 0.02% DDM, 2 mM MgCl2, 1 mM AMP-PNP; fitted to a tight binding equation

Row | Kd | Substance
1 | 42 nM | SecY_(prlA4-EDP)EG (SecY_(F286Y,I408N,R357E,P358D,G359P)EG) (from UniProt P0AGA2 1-443; P0AG96 1-127; P0AG99 1-110) (complex)
2 | 36 nM | SecY_(prlA4)EG (SecY_(F286Y/I408N)EG) (from UniProt P0AGA2 1-443; P0AG96 1-127; P0AG99 1-110) (complex)
3 | 135 nM | SecYEDPEG (SecY_(R357E/P358D/G359P)EG) (from UniProt P0AGA2 1-443; P0AG96 1-127; P0AG99 1-110) (complex)

— PMC4826270
